# Data: patent publication US20140179896A1 (published 2014)
# Legend:
# [1] = target: T1, human vascular endothelial growth factor receptor-2 Fc chimera (KDR-Fc) (human, UniProt P35968 20-764); assay: BIAcore, target-Fc immobilized
# T1 construct: range 1-764; purchased from R&D Systems; also called hKDR; human VEGF-R2-Fc; not shown: human IgG1 Fc
# Protocol: (§1) The binding kinetics of fibronectin-based scaffold proteins binding proteins to the target was measured using BIAcore 2000 biosensor (Pharmacia Biosensor). Human and mouse VEGF-R2-Fc fusions were immobilized onto a CM5 sensor chip and soluble binding proteins were injected at concentrations ranging from 0 to 100 nM in buffer 0 (10 mM HEPES, 150 mM NaCl, 0.005% Tween 20, pH 7.4). Sensorgrams were obtained at each concentration and were evaluated using a program, BIA Evaluation 2.0 (BIAcore), to determine the rate constants kₐ (kₒₙ) and kd (koff.) The affinity constant, KD was calculated from the ratio of rate constants […].
# T1 sequence (P35968 20-764 limits assumed, change not shown, form in doubt): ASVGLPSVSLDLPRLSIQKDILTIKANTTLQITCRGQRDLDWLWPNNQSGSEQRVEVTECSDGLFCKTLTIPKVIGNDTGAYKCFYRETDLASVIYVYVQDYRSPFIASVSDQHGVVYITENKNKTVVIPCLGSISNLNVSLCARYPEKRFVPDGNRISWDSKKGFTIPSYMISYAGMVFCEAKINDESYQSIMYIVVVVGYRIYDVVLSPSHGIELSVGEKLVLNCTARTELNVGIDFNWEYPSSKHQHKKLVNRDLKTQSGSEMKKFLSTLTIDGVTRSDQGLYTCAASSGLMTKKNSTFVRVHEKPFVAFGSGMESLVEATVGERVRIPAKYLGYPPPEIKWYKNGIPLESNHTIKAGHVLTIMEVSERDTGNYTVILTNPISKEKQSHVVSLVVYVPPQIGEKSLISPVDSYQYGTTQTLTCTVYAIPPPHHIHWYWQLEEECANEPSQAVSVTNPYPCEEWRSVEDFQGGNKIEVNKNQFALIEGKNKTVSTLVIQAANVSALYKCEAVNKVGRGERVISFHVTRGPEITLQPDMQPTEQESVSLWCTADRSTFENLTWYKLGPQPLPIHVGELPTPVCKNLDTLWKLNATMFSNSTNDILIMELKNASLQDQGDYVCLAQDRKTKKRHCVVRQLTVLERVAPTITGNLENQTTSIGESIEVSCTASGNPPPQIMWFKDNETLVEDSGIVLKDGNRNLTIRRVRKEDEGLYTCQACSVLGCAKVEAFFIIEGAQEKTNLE
# [2] = target: T2, mouse vascular endothelial growth factor receptor-2 Fc chimera (Flk-1-Fc) (mouse, UniProt P35918 20-762); assay: BIAcore, target-Fc immobilized
# T2 construct: purchased from R&D Systems; also called mouse VEGF-R2-Fc; not shown: Fc part of the purchased chimera
# Protocol: as §1
# T2 sequence (P35918 20-762, change not shown): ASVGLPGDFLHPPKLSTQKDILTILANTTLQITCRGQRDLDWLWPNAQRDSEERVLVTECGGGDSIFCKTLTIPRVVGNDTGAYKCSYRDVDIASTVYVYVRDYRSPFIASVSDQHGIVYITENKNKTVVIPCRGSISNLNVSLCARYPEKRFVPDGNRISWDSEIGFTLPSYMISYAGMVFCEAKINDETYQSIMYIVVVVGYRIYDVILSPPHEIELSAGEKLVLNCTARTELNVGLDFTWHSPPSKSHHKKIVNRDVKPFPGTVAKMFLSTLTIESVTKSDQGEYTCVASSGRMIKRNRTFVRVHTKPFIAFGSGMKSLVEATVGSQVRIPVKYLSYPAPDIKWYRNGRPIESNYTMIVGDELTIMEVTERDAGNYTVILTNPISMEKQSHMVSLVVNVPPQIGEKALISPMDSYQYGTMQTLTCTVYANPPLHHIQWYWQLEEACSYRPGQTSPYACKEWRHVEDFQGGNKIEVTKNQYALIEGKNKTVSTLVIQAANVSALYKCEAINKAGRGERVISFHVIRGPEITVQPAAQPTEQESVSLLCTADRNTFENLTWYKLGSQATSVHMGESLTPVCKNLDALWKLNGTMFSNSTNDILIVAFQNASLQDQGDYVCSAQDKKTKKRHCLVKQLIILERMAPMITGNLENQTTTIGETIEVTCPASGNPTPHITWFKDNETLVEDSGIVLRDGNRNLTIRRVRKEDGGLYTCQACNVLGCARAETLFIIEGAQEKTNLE
# [3] = target: T1, human vascular endothelial growth …; assay: radioactive equilibrium binding assay
# Protocol: (§2) To prepare ³⁵S-labeled binding proteins for analysis, mRNA was prepared as described above for RNA-protein fusion production but the linker ligation step was omitted. The mRNA was expressed using rabbit reticulocyte lysate translation kit (Ambion) in the presence of ³⁵S-labeled Met at 30° C. for 1 hour. Expressed protein was purified on M2-agarose Flag beads (Sigma) as described above. This procedure produced the encoded protein without the nucleic acid tail. In a direct binding assay, VEGF-R2-Fc fusions in concentrations ranging from 0 to 200 nM were added to a constant concentration of the purified protein (0.2 or 0.5 nM) and incubated at 30° C. for 1 hour in buffer B. The receptor-binder complexes were captured using Protein A magnetic beads for another 10 minutes at room temperature using a Kingfisher™ The beads were washed with six reaction volumes of buffer B. The protein was eluted from the beads with 100 μL of 0.1 M KOH. […] of the reaction mixture and elution were dried onto a LumaPlate-96 (Packard) and the amount of ³⁵S on the plate was measured using a TopCount NXT instrument (Packard). The amount of fibronectin-based scaffold protein bound to the target was estimated as a percent of radioactivity eluted from Protein A magnetic beads compare to radioactivity in the reaction mixture. Nonspecific binding of fibronectin-based scaffold proteins to the beads was determined by measuring binding in the absence of KDR-Fc and represented less than 1-2% of the input. Specific binding was obtained through subtraction of nonspecific binding from total binding. Data was analyzed using the GraphPad Prizm software (GraphPad Software, Inc, San Diego, Calif.), fitted using a one site, non-linear binding equation.
# [4] = target: T2, mouse vascular endothelial growth …; assay: radioactive equilibrium binding assay
# Protocol: as §2
# [5] = target: T3, human vascular endothelial growth factor receptor-2 Fc chimera (KDR-Fc) (human, UniProt P35968 20-764); assay: radioactive equilibrium binding assay, KDR-Fc
# T3 construct: range 1-764; also called human VEGFR-2; not shown: human IgG1 Fc
# Protocol: as §2
# T3 sequence (P35968 20-764 limits assumed, change not shown, form in doubt): as the sequence (P35968 20-764 limits assumed, change not shown, form in doubt) above
# [6] = target: T4, mouse vascular endothelial growth factor receptor-2 Fc chimera (Flk-1-Fc) (mouse, UniProt P35918 20-762); assay: radioactive equilibrium binding assay, Flk-1-Fc
# T4 construct: Bought from R&D Systems; also called mouse VEGFR-2; not shown: Fc part of the purchased chimera, not specified
# Protocol: as §2
# T4 sequence (P35918 20-762, change not shown): as the sequence (P35918 20-762, change not shown) above
# [7] = target: T3, human vascular endothelial growth …; assay: radioactive equilibrium binding assay, 1 nM KDR-Fc, % of input bound
# Outline: (§3)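 Receptor-Fc fusions titrated from 0 to 200 nM against a fixed 0.2 or 0.5 nM of ³⁵S-labeled scaffold protein for 1 h at 30° C. Protein A bead pull-down followed by scintillation counting of eluate versus reaction mixture. Specific binding is total minus no-receptor binding, fitted to a one-site nonlinear equation.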
# [8] = target: T4, mouse vascular endothelial growth …; assay: radioactive equilibrium binding assay, 1 nM Flk-1-Fc, % of input bound
# Outline: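 ³⁵S-Met-labeled binder protein, made by reticulocyte-lysate translation and Flag-purified, held at 0.2 or 0.5 nM with receptor-Fc (0–200 nM) for 1 h at 30° C in buffer B. Complexes captured on Protein A beads, washed, KOH-eluted. Bound signal given as % of input radioactivity minus bead-only background; one-site fit.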
# [9] = target: T1, human vascular endothelial growth …; assay: radioactive equilibrium binding assay, KDR-Fc
# Protocol: as §2
# [10] = target: T5, human vascular endothelial growth factor receptor-2 Fc chimera (KDR-Fc) (human, UniProt P35968 20-764); assay: radioactive equilibrium binding, KDR-Fc
# T5 construct: range 1-764; also called human VEGFR-2; VEGF-R2-Fc; not shown: human IgG1 Fc
# Protocol: as §2
# T5 sequence (P35968 20-764 limits assumed, change not shown, form in doubt): as the sequence (P35968 20-764 limits assumed, change not shown, form in doubt) above
# [11] = target: T5, human vascular endothelial growth …; assay: radioactive equilibrium binding, 1 nM KDR-Fc
# Outline: as §3
Binder,Kd [5],Kd [6],"Binding to 1 nM KDR, % [7]","Binding to 1 nM Flk-1, % [8]",also measured
"E6 (designed binder, Del 1-8 10Fn3 clone; Flag-tagged in vitro translated protein in the radioactive assay, His6-tagged E. coli protein in BIAcore; tags left out) EVVAATPTSLLISWRHPHFPTRYYRITYGETGGNSPVQEFTVPLQPPTATISGLKPGVDYTITGYAVTDGWNGRLLSIPISINYRT",,,,,Kd [1]: 0.08 nM; koff [1]: 6.7e-05 s⁻¹; kon [1]: 890000 M⁻¹ s⁻¹; Kd [2]: 2.02 nM; koff [2]: 0.00136 s⁻¹; kon [2]: 670000 M⁻¹ s⁻¹; Kd [3]: < 0.4 nM; Kd [4]: 7.1 nM
"E26 (designed binder, 10Fn3 clone, Del 1-8) EVVAATPTSLLISWRHPHFPTRYYRITYGETGGNSPVQEFTVPLQPPTATISGLKPGVDYTITGYAVTVERNGRELMTPISINYRT",1.66 nM,2.05 nM,27%,20%,
"E19 (designed binder, 10Fn3 clone, Del 1-8) EVVAATPTSLLISWRHPHFPTRYYRITYGETGGNSPVQEFTVPLQPPTATISGLKPGVDYTITGYAVTVERNGRHLMTPISINYRT",1.3 nM,0.66 nM,38%,40%,
"K1 (designed binder, tag left out) EVVAATPTSLLISWRHPHFPTRYYRITYGETGGNSPVQEFTVPLQPPTATISGLKPGVDYTITGYAVTMGLYGHELLTPISINYRT",,,,,Kd [9]: < 0.6 nM
"K12 (designed binder, Del 1-8) EVVAATPTSLLISWRHPHFPTRYYRITYGETGGNSPVQEFTVPLQPPTATISGLKPGVDYTITGYAVTDVYNDHEIKTPISINYRT",,,,,"Kd [10]: 0.62 nM; Binding to 1 nM KDR, % [11]: 29%"
"E3 (designed binder, 10Fn3 clone, Del 1-8) EVVAATPTSLLISWRHPHFPTRYYRITYGETGGNSPVQEFTVPLQPPTATISGLKPGVDYTITGYAVTDGRNDRKLMVPISINYRT",0.96 nM,5.4 nM,37%,14%,
"E3 (designed binder, Del 1-8 10Fn3 clone; Flag-tagged in vitro translated protein in the radioactive assay; tag left out) EVVAATPTSLLISWRHPHFPTRYYRITYGETGGNSPVQEFTVPLQPPTATISGLKPGVDYTITGYAVTDGRNDRKLMVPISINYRT",,,,,Kd [3]: < 1 nM; Kd [4]: 5.4 nM
"E28 (designed binder, Del 1-8 10Fn3 clone; Flag-tagged in vitro translated protein in the radioactive assay; tag left out) EVVAATPTSLLISWRHPHFPTRYYRITYGETGGNSPVQEFTVPLQPPTATISGLKPGVDYTITGYAVTLERNGRELMVPISINYRT",,,,,Kd [3]: < 1.6 nM; Kd [4]: 2.1 nM
"K13 (designed binder, Del 1-8; 246 used) EVVAATPTSLLISWRHPHFPTRYYRITYGETGGNSPVQEFTVPLQPPTATISGLKPGVDYTITGYAVTLALKGHELLTPISINYRT",,,,,"Kd [10]: 0.58 nM; Binding to 1 nM KDR, % [11]: 17%"
"E25 (designed binder, Del 1-8 10Fn3 clone; Flag-tagged in vitro translated protein in the radioactive assay, His6-tagged E. coli protein in BIAcore; tags left out) EVVAATPTSLLISWRHPHFPTRYYRITYGETGGNSPVQEFTVPLQPPTATISGLKPGVDYTITGYAVTLERNGRELMTPISINYRT",,,,,Kd [1]: 0.21 nM; koff [1]: 5.2e-05 s⁻¹; kon [1]: 250000 M⁻¹ s⁻¹; Kd [2]: 0.76 nM; koff [2]: 0.000378 s⁻¹; kon [2]: 500000 M⁻¹ s⁻¹; Kd [3]: < 1.6 nM; Kd [4]: < 1.3 nM
"K6 (designed binder, tag left out) EVVAATPTSLLISWRHPHFPTRYYRITYGETGGNSPVQEFTVPLQPPTATISGLKPGVDYTITGYAVTDGKDGRVLLTPISINYRT",,,,,Kd [9]: < 0.9 nM
"K14 (designed binder, Del 1-8) EVVAATPTSLLISWRHPHFPTRYYRITYGETGGNSPVQEFTVPLQPPTATISGLKPGVDYTITGYAVTREENDHELLIPISINYRT",,,,,"Kd [10]: 0.57 nM; Binding to 1 nM KDR, % [11]: 20%"
"E5 (designed binder, Del 1-8 10Fn3 clone; Flag-tagged in vitro translated protein in the radioactive assay; tag left out) EVVAATPTSLLISWRHPHFPTRYYRITYGETGGNSPVQEFTVPLQPPTATISGLKPGVDYTITGYAVTDGQNGRLLNVPISINYRT",,,,,Kd [3]: < 0.4 nM; Kd [4]: 3.2 nM
"E9 (designed binder, Del 1-8 10Fn3 clone; Flag-tagged in vitro translated protein in the radioactive assay; tag left out) EVVAATPTSLLISWRHPHFPTRYYRITYGETGGNSPVQEFTVPLQPPTATISGLKPGVDYTITGYAVTEERNGRTLRTPISINYRT",,,,,Kd [3]: 2.4 nM; Kd [4]: < 1.4 nM
"K15 (designed binder, Del 1-8) EVVAATPTSLLISWRHPHFPTRYYRITYGETGGNSPVQEFTVPLQPPTATISGLKPGVDYTITGYAVTEVHHDREIKTPISINYRT",,,,,"Kd [10]: 0.35 nM; Binding to 1 nM KDR, % [11]: 25%"
"E18 (designed binder, 10Fn3 clone, Del 1-8) EVVAATPTSLLISWRHPHFPTRYYRITYGETGGNSPVQEFTVPLQPPTATISGLKPGVDYTITGYAVTVERNGRELNTPISINYRT",1.2 nM,0.53 nM,17%,29%,
"E28 (designed binder, 10Fn3 clone, Del 1-8) EVVAATPTSLLISWRHPHFPTRYYRITYGETGGNSPVQEFTVPLQPPTATISGLKPGVDYTITGYAVTLERNGRELMVPISINYRT",1.63 nM,2.1 nM,19%,21%,

# Continued, in another order:
Kd [5],Kd [6],"Binding to 1 nM KDR, % [7]","Binding to 1 nM Flk-1, % [8]",Binder,also measured
1.51 nM,0.91 nM,41%,44%,"E29 (designed binder, 10Fn3 clone, Del 1-8) EVVAATPTSLLISWRHPHFPTRYYRITYGETGGNSPVQEFTVPLQPPTATISGLKPGVDYTITGYAVTVERNGRVLMTPISINYRT",
2.37 nM,1.4 nM,24%,34%,"E9 (designed binder, 10Fn3 clone, Del 1-8) EVVAATPTSLLISWRHPHFPTRYYRITYGETGGNSPVQEFTVPLQPPTATISGLKPGVDYTITGYAVTEERNGRTLRTPISINYRT",
0.4 nM,3.2 nM,26%,10%,"E5 (designed binder, 10Fn3 clone, Del 1-8) EVVAATPTSLLISWRHPHFPTRYYRITYGETGGNSPVQEFTVPLQPPTATISGLKPGVDYTITGYAVTDGQNGRLLNVPISINYRT",
1.58 nM,1.3 nM,41%,28%,"E25 (designed binder, 10Fn3 clone, Del 1-8) EVVAATPTSLLISWRHPHFPTRYYRITYGETGGNSPVQEFTVPLQPPTATISGLKPGVDYTITGYAVTLERNGRELMTPISINYRT",
0.35 nM,7.1 nM,36%,7%,"E6 (designed binder, 10Fn3 clone, Del 1-8) EVVAATPTSLLISWRHPHFPTRYYRITYGETGGNSPVQEFTVPLQPPTATISGLKPGVDYTITGYAVTDGWNGRLLSIPISINYRT",
